This is an account of results in patent US20100081795A1 (Bayer, published 2010).

This assay addresses T1, purified, native RG1 protein produced in transfected BHK cells (human, UniProt Q9BUD6 27-331).
T1 construct: also called BHK-RG1; nRG1
T1 chain: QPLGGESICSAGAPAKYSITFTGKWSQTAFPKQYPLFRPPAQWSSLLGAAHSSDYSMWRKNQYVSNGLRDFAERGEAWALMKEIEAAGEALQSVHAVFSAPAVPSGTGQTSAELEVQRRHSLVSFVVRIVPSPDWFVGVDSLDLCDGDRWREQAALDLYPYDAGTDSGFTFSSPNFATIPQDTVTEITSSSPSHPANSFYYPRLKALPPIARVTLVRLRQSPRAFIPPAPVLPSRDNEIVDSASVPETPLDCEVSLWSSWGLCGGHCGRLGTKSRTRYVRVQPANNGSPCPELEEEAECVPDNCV
Description: BIAcore SPR; mab captured on anti-human IgG Fc, soluble BHK-RG1 12.5-400 nM; 1:1 Langmuir fit. As for the experimental part: Kinetic constants (KD, kₐ and kd) of mab binding to native RG1 protein were determined by BIAcore using a capture format in which soluble, native RG1 protein was bound to immobilized mab on a sensor chip. ImmunoPure rabbit anti-human IgGFc (Pierce, 31142) was covalently immobilized to the Sensor Chip CM5 (Biacore, BR-1000-12) using standard amine coupling methods. 100 ug/ml antibody diluted in 10 mm acetate, pH 4.0 was used at 5 ul/min. HBS-EP (Biacore, BR-1001-88) was used as mobile phase. Unreacted sites were blocked with ethanolamine. Mabs were diluted to 200 nM with HBS and 50 μl was injected per cycle at 10 ul/min. Serial dilutions of BHK-RG1 (12.5-400 nM) were bound to the immobilized mab. Dissociation kinetics were measured immediately after the antigen injection was completed at 20 μl/min for 8 minutes. The surface was regenerated following each cycle using 25 ul of 10 mm glycine, pH 1.8 and then washed with HBS.
Typically, five concentrations and a media control were run. Data were fit to a 1:1 Langmuir model using the software provided by the instrument manufacturer (BIAevaluation 3.0), and kinetic constants were calculated. Equilibrium constants were in the nanomolar range with favorable dissociation rates (10⁻⁴ s⁻¹).

B1: human RG1 monoclonal antibody B (antibody, V domains shown)
VH: EVQLVQSGGGLVHPGGSLRLSCAGSGFTFSSYVMHWLRQAPGKGLEWVSVIGTGGVTHYADSVKGRFTISRDNAKNSLYLQMNSLRAEDMAMYYCARWGYYGSGSYENDAFDIWGQGTMVTVSS
VL: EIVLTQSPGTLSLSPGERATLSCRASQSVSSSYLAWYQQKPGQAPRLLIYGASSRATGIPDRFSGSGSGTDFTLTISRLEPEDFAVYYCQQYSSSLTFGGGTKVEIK
notes: Hybridoma-derived human antibody with a kappa light chain; also called Mab B
In turn, B1 yielded a Kd of 8.4 nM, an off-rate constant (koff) of 0.00023 s⁻¹ and a kon of 29000 M⁻¹ s⁻¹.

Broadly, the Kd is a measure of binding affinity in units of concentration. The koff is a measure of how fast the partners let go of each other. Read a low koff as slow dissociation. Usually kon stands for the second-order rate constant of association. Lower therefore signals slower complex formation.
